{"source": "paper PMC8124269", "about": "“Antiviral Properties of the NSAID Drug Naproxen Targeting the Nucleoprotein of SARS-CoV-2 Coronavirus”", "binders": {"B1": {"name": "48-mer ssDNA (ssDNA)", "DNA": "ATATATATCTATGTCCATATATATATAAAACACAGCGTGTGTGTGTAA"}}, "molecular_target": "SARS-CoV-2 N NTD (batch 2, monomer) (SARS-CoV-2, UniProt P0DTC9 50-173)", "assay": "DLS; Anisotropy: 10 mM Tris pH 8.0, 50 mM NaCl, 2 mM beta-mercaptoethanol, thermostated (temperature not stated); DLS: 20 mM Tris pH 7.9, 100 mM NaCl, 20 C", "settings": "protein: recombinant; tags: N-terminal His6 (pET-28a); single strand", "data": [{"binder": "B1", "values": [{"measurement": "binding result", "value": "binds"}]}]}
